Test results published in patent publication US5866683A, “Isoelectric point markers for isoelectric focusing with fluorescence detection” (Laboratory of Molecular Biophotonics, priority 1995, dated 1999).
Where no end group is shown, it is not given here.

Columns and labels:
[1] = isoelectric focusing in polyacrylamide slab gel, mobility compared with commercial pI markers; assay type: physicochemical; conditions: fluorescence-labeled (5-carboxytetramethylrhodamine) oligopeptide, carrier ampholyte pH 3.5-10, vs pI calibration kit 3-10 (range pI 9.30-3.5)
From the text: In the present invention, pI of each marker for isoelectric focusing with fluorescence detection can be determined by performing isoelectric focusing to compare a mobility thereof with those of commercially available markers for isoelectric focusing or to directly measure pH at a position of migration of the labeled peptide. The isoelectric focusing preferably applicable is isoelectric focusing in polyacrylamide slab gel (see […]., Isoelectric Focusing: Theory, Methodology and Applications, Elsevier, Amsterdam, 1983). […] The focusing conditions were as follows: started at […] and focusing the voltage was increased at intervals of 15 minutes to 100 V, 200 V, 400 V, and 600 V. After focusing, fluorescence-labeled oligopeptides in the gel were photographed through an orange filter under illumination with ultraviolet light, thereby checking focusing positions thereof. […] After staining, de-stained with a mixed solvent of methanol and acetic acid to obtain a clear background, thereby checking the focusing positions. FIG. 5,6,and 7 show the focusing positions of the 24 fluorescence-labeled oligopeptides obtained and the isoelectric focusing markers commercially available.

[2] = unlabeled protein; cited from earlier work

Substance: DDEHHHKR [No 20, oligopeptide labeled with 5-carboxytetramethylrhodamine]
- pI Observed [1]: 4.70

Substance: DEYHKR [No 12, oligopeptide labeled with 5-carboxytetramethylrhodamine]
- pI Observed [1]: 5.55

Substance: EHHHKR [No 17, oligopeptide labeled with 5-carboxytetramethylrhodamine]
- pI Observed [1]: 7.90

Substance: Glu--His--Lys--Arg (EHKR; printed: Glu--His--Lys--Arg) [No 9, oligopeptide labeled with 5-carboxytetramethylrhodamine]
- pI Observed [1]: 7.65

Substance: Tyr--Tyr--His--Lys--Arg (YYHKR; printed: Tyr--Tyr--His--Lys--Arg) [No 8, oligopeptide labeled with 5-carboxytetramethylrhodamine]
- pI Observed [1]: > 9.30

Substance: bovine carbonic anhydrase [reference compound]
- pI (known) of conventional protein pI marker [2]: 6.00

Substance: human carbonic anhydrase [reference compound]
- pI (known) of conventional protein pI marker [2]: 6.50

Substance: human hemoglobin A [reference compound]
- pI (known) of conventional protein pI marker [2]: 7.10

Substance: phycocyanin [reference compound]
- pI (known) of conventional protein pI marker [2]: 4.65

Substance: β-lactoglobulin B [reference compound]
- pI (known) of conventional protein pI marker [2]: 5.10
